Results reported in patent publication US20240132603A1 (HARBOUR BIOMED US, published 2024).

B1: PR006155 (antibody, human IgG1, kappa)
heavy: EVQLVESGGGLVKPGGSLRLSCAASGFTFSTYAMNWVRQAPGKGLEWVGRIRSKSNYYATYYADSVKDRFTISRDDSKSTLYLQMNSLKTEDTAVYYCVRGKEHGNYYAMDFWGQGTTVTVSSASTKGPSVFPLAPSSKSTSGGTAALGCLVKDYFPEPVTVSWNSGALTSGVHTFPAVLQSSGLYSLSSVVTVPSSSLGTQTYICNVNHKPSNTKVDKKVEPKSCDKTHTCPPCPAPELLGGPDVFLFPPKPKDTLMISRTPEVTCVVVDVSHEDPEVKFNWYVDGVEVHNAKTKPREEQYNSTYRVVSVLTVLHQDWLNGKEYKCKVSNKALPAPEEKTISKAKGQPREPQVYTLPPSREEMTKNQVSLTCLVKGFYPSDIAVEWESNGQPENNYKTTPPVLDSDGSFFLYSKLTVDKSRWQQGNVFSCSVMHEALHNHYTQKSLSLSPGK
light: DIVMTQSPLSLPVTLGQPASISCRSSKSLLHSNAKIYLYWFQQRPGQSPRLLIYRMSNLASGVPDRFSGSGSGTDFTLKISRVEAEDVGVYYCMQHLEYPLTFGQGTKLEIKRTVAAPSVFIFPPSDEQLKSGTASVVCLLNNFYPREAKVQWKVDNALQSGNSQESVTEQDSKDSTYSLSSTLTLSKADYEKHKVYACEVTHQGLSSPVTKSFNRGEC
B2: PR006276 (antibody, human IgG1, kappa)
heavy: not shown
light: B1 light
B3: PR006275 (antibody, human IgG1, kappa)
heavy: not shown
light: B1 light
B4: PR006166 (antibody, human IgG1, kappa)
heavy: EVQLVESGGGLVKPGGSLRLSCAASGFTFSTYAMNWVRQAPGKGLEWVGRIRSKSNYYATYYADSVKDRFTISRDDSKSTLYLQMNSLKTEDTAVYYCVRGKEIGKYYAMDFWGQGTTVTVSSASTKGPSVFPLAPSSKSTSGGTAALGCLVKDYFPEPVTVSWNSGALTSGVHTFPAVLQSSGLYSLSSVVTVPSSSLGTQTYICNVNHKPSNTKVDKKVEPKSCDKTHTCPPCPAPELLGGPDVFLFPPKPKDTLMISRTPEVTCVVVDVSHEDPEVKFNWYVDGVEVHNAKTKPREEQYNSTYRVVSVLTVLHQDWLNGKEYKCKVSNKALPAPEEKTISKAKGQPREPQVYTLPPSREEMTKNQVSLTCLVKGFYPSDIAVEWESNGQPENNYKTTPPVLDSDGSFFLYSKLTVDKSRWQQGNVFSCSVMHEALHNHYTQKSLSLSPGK
light: B1 light

How the values were obtained:
[1] = target: T1, human CCR8 (human, UniProt P51685 1-355); experiment: FACS, CHO-K1-hCCR8 cells
T1 construct: whole, on cells; construct used for the overexpressing cell lines is not described; also called hCCR8
T1 sequence (P51685 whole entry): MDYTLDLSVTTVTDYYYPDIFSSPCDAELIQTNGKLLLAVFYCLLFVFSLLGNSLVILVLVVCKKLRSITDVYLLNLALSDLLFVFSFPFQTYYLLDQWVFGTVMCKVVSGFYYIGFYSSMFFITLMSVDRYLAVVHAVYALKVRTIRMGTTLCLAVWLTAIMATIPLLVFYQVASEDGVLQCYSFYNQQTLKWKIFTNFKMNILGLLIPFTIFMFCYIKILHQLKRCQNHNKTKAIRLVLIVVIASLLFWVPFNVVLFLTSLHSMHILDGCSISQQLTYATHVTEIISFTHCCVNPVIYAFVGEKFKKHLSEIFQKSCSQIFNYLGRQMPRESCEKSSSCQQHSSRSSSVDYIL
Method in brief: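 Anti-CCR8 antibodies, in 5-fold serial dilution from 200 nM in DPBS with 2% FBS, were bound to detached cells for 1 h at 4 °C. A 1:1000 secondary antibody followed for 40 min at 4 °C, and binding was read by flow cytometry.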

[2] = target: T2, cynomolgus monkey CCR8 (cynomolgus monkey, UniProt G7NYJ2 1-355); experiment: FACS, CHO-K1-CynoCCR8 cells
T2 construct: whole, on cells; also called CynoCCR8
T2 sequence (G7NYJ2 entry or part of it): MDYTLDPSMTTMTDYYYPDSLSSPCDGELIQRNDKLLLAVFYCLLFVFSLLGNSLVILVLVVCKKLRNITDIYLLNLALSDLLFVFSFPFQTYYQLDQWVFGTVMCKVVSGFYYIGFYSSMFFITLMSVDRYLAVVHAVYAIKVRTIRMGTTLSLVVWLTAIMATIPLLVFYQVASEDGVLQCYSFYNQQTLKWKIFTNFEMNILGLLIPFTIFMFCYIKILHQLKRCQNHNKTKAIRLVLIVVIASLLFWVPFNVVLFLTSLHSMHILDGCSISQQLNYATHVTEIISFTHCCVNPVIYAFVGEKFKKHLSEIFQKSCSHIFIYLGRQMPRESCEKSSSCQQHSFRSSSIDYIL
Method in brief: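 Anti-CCR8 antibodies titrated in 5-fold steps from 200 nM onto 1E6 cells/mL CHO-K1-CynoCCR8 in DPBS/2% FBS, 1 h at 4 °C. Bound antibody detected with 1:1000 secondary antibody, 40 min at 4 °C, then flow cytometry.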

[3] = target: T1, human CCR8; experiment: KinExA, cell line overexpressing human CCR8; human CCR8 cell line
Procedure: (§1) To 200 mg of PMMA hard beads was added 30 μg of Goat Anti-Human IgG Fc antibody, and the mixture was supplemented with a coating solution to 1.0 mL, with a buffer composition of 1×PBS, pH7.4, to ensure that the beads were completely suspended in the solution. After being spun at room temperature for 2 h, the beads were either allowed to settle naturally or centrifuged briefly at low speed, and the supernatant was removed. 1 mL of blocking buffer (1×PBS, pH7.4, containing 10 mg/mL BSA) was added to ensure that the beads were resuspended in the blocking solution, and the beads were spun at room temperature for 1 h. An appropriate concentration of PR005565, PR006155 or PR006166 was used as the 100% signal value, and PBS blank was used as the background value. The net signal values were detected using 0.5 μg/mL Alexa Fluor® 647 Goat Anti-Human IgG. The cell line overexpressing human or monkey CCR8 was collected by centrifugation at 1500 g for 5 min, washed 2 times with 2 PBS and centrifuged at 350 g. The cells were collected in a 1.5 mL centrifuge tube. 10 mL of 0.2 nM PR005565, PR006155 or PR006166 solution was prepared. The total cells were supplemented with 0.2 nM PR005565, PR006155 or PR006166 solution to 0.82 mL, and diluted in a 2-fold gradient with 0.2 nM PR005565, PR006155 or PR006166 as a buffer. […]

[4] = target: T3, CD147; experiment: flow cytometry, HEK293-CD147 cells
T3 construct: also called HEK293-CD147

[5] = target: T4, MMP16 (UniProt P51512 120-607); experiment: flow cytometry, HEK293-MMP16 cells
T4 construct: whole, on cells; also called HEK293-MMP16
T4 sequence (P51512 120-607): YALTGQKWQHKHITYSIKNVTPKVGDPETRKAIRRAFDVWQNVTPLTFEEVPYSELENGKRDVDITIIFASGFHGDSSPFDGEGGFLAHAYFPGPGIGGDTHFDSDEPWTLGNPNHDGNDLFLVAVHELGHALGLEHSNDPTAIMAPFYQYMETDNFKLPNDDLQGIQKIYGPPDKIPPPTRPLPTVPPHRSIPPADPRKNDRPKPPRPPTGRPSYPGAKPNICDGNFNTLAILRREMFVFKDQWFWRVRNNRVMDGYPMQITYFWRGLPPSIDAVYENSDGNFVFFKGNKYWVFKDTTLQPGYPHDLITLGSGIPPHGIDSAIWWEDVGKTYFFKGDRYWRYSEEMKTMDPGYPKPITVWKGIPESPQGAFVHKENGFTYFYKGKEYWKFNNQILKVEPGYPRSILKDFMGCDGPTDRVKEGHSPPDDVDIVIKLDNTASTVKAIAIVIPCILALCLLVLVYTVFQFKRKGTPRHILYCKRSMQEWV

[6] = target: T5, CD40LG (UniProt P29965 1-261); experiment: flow cytometry, HEK293-CD40LG cells
T5 construct: whole, on cells; also called HEK293-CD40LG
T5 sequence (looked up): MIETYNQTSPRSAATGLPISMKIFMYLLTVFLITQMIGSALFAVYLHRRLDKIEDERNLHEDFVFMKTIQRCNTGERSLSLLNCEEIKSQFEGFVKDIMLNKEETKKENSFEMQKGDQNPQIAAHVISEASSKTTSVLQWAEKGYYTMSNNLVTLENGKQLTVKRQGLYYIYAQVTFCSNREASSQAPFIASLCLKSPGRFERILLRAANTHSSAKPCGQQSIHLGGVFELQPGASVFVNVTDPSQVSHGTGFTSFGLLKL

[7] = target: T6, TSPAN4-FLAG (UniProt O14817 1-238, limits assumed); experiment: flow cytometry, HEK293-TSPAN4 cells
T6 construct: whole, on cells; order of protein and tag unknown; also called HEK293-TSPAN4; not shown: FLAG tag
T6 sequence (looked up): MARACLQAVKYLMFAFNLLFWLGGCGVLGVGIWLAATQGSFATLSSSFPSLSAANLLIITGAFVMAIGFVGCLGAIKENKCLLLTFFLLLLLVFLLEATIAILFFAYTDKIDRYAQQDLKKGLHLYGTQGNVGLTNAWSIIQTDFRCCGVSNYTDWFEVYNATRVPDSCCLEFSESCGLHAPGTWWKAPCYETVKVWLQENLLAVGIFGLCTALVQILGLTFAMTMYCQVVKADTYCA

[8] = target: T6, TSPAN4-FLAG; experiment: flow cytometry, transfected HEK293 cells
Source text: (§2) After that, HEK293 cells were transfected with commercial MMP16 (protein information can be found under Uniprot P51512), CD40LG (protein information can be found under Uniprot P29965), CD147 (protein information can be found under Uniprot P35612), TSPAN4 (protein information can be found under Uniprot 014817), and TSPAN12 (protein information can be found under Uniprot 095859) plasmids for further verification of the binding of PR005565, PR006275 and PR006276 to these proteins. […] However, the binding values of PR005565, PR006275 and PR006276 to MMP16, CD40LG, CD147, TSPAN4 and TSPAN12 after transfection of HEK293 cells were all consistent with the signal values of HEK293 cells themselves. Thus, PR005565, PR006275 and PR006276 had no non-specific binding to MMP16, CD40LG, CD147, TSPAN4 and TSPAN12 proteins (see Table 50).

[9] = target: T7, TSPAN12-FLAG (UniProt O95859 1-305); experiment: flow cytometry, transfected HEK293 cells
T7 construct: whole, on cells; order of protein and tag unknown; also called HEK293-TSPAN12; not shown: FLAG tag
T7 sequence (looked up): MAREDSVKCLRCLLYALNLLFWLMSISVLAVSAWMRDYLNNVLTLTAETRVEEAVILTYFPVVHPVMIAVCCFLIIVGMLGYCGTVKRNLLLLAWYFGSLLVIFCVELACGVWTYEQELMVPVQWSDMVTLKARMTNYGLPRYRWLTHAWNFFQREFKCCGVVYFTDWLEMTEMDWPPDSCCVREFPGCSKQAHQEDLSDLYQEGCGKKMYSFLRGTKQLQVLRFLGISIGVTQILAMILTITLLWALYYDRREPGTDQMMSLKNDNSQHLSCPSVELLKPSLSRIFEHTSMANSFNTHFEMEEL
Source text: as §2

[10] = target: T4, MMP16; experiment: flow cytometry, transfected HEK293 cells
Source text: as §2

[11] = target: T5, CD40LG; experiment: flow cytometry, transfected HEK293 cells
Source text: as §2

[12] = target: T7, TSPAN12-FLAG; experiment: flow cytometry, HEK293-TSPAN12 cells
Source text: as §2

[13] = target: T2, cynomolgus monkey CCR8; experiment: KinExA, cell line overexpressing monkey CCR8; monkey CCR8 cell line
Procedure: as §1

Binder	EC50 [1] [nM]	EC50 [2] [nM]	Kd [3] [nM]	MFI [4]	MFI [5]	MFI [6]	MFI [7]	binding result [8]	binding result [9]	binding result [10]	binding result [11]	MFI [12]	Kd [13] [nM]
B1	0.38	0.39	0.0214	–	–	–	–	–	–	–	–	–	–
B2	0.4	0.51	–	152	160	152	203	no binding	no binding	no binding	no binding	185	–
B3	0.38	0.47	–	362	204	352	424	no binding	no binding	no binding	no binding	398	–
B4	0.49	0.44	–	–	–	–	–	–	–	–	–	–	0.0493
